The values that follow come from the supplement of paper PMC12067230.

± gives the uncertainty stated by the source.

The chains are these.
B1: A-7-M; numbered along this chain (parent)
chain: EASNCFAIRHFENKFAVETLICFNLFLNSQEKHY

This series covers variants of B1. Nature of the series: amyloid nucleation score relative to WT ADan (yeast Sup35 reporter selection) (log enrichment difference); higher = more amyloid nucleation. The protocol: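 Deep mutational scan of the ADan peptide fused to the Sup35 nucleation domain (SupN) in S. cerevisiae [psi-pin-], covering all single amino-acid substitutions and stop truncations (truncations = sequence up to the stop). After 24 h Cu2+ induction, cells were selected on -ADE-URA plates for 7 d at 30 °C. The nucleation score is log enrichment (output/input, deep sequencing) minus that of WT ADan, as the error-weighted mean of 3 biological replicates (DiMSum).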
Regarding EASNCFMIRHFENKFAVETLICFNLFLNSQEKHY [A7M], the amyloid nucleation score was -0.0811 ± 0.16.
EASNCFFIRHFENKFAVETLICFNLFLNSQEKHY [A7F]: the amyloid nucleation score was 0.173 ± 0.13.
In the case of EASNCFHIRHFENKFAVETLICFNLFLNSQEKHY [A7H], the amyloid nucleation score is 0.394 ± 0.15.
In the case of EASNCFPIRHFENKFAVETLICFNLFLNSQEKHY [A7P], the amyloid nucleation score was 0.577 ± 0.12.
The figure for EASNCFDIRHFENKFAVETLICFNLFLNSQEKHY [A7D] is -0.2 ± 0.14; for EASNCFVIRHFENKFAVETLICFNLFLNSQEKHY [A7V] it is 0.125 ± 0.1; for EASNCFKIRHFENKFAVETLICFNLFLNSQEKHY [A7K] it is 0.0182 ± 0.15.
The figure for EASNCFGIRHFENKFAVETLICFNLFLNSQEKHY [A7G] is 0.45 ± 0.082.
On to EASNCFNIRHFENKFAVETLICFNLFLNSQEKHY [A7N], for which the amyloid nucleation score was found to be 0.744 ± 0.13.
The figure for EASNCFWIRHFENKFAVETLICFNLFLNSQEKHY [A7W] is -0.43 ± 0.15; for EASNCFRIRHFENKFAVETLICFNLFLNSQEKHY [A7R] it is 0.12 ± 0.086; for EASNCFYIRHFENKFAVETLICFNLFLNSQEKHY [A7Y] it is 0.529 ± 0.13.
Regarding EASNCFIIRHFENKFAVETLICFNLFLNSQEKHY [A7I], the amyloid nucleation score was -0.415 ± 0.14.
The figure for EASNCFLIRHFENKFAVETLICFNLFLNSQEKHY [A7L] is -1.17 ± 0.099; for EASNCFSIRHFENKFAVETLICFNLFLNSQEKHY [A7S] it is 0.0708 ± 0.089; for EASNCFEIRHFENKFAVETLICFNLFLNSQEKHY [A7E] it is 0.0742 ± 0.14.
EASNCFTIRHFENKFAVETLICFNLFLNSQEKHY [A7T]: the amyloid nucleation score is -0.0425 ± 0.13.
The figure for EASNCFCIRHFENKFAVETLICFNLFLNSQEKHY [A7C] is 0.601 ± 0.12; for EASNCFQIRHFENKFAVETLICFNLFLNSQEKHY [A7Q] it is 0.436 ± 0.18.
As to EASNCYAIRHFENKFAVETLICFNLFLNSQEKHY [F6Y], the amyloid nucleation score is 0.351 ± 0.14.
For the variant EASNCSAIRHFENKFAVETLICFNLFLNSQEKHY [F6S], the amyloid nucleation score turned out to be 0.477 ± 0.11.
Take EASNCMAIRHFENKFAVETLICFNLFLNSQEKHY [F6M]: the amyloid nucleation score was -0.0809 ± 0.15.
In the case of EASNCIAIRHFENKFAVETLICFNLFLNSQEKHY [F6I], the amyloid nucleation score was -0.609 ± 0.19.
The same measure for EASNCPAIRHFENKFAVETLICFNLFLNSQEKHY [F6P]: 0.53 ± 0.16.
The same measure for EASNCGAIRHFENKFAVETLICFNLFLNSQEKHY [F6G]: 0.176 ± 0.11; for EASNCEAIRHFENKFAVETLICFNLFLNSQEKHY [F6E]: 0.683 ± 0.15.
The figure for EASNCRAIRHFENKFAVETLICFNLFLNSQEKHY [F6R] is 0.678 ± 0.1; for EASNCCAIRHFENKFAVETLICFNLFLNSQEKHY [F6C] it is 0.408 ± 0.14.
Regarding EASNCLAIRHFENKFAVETLICFNLFLNSQEKHY [F6L], the amyloid nucleation score is -0.5 ± 0.11.
Regarding EASNCAAIRHFENKFAVETLICFNLFLNSQEKHY [F6A], the amyloid nucleation score is 0.0803 ± 0.13.
Take EASNCHAIRHFENKFAVETLICFNLFLNSQEKHY [F6H]: the amyloid nucleation score is 0.563 ± 0.19.
Turning to EASNCQAIRHFENKFAVETLICFNLFLNSQEKHY [F6Q], the amyloid nucleation score amounted to 0.362 ± 0.17.
For EASNCKAIRHFENKFAVETLICFNLFLNSQEKHY [F6K], the amyloid nucleation score turned out to be 0.8 ± 0.17.
The figure for EASNCWAIRHFENKFAVETLICFNLFLNSQEKHY [F6W] is 0.168 ± 0.16; for EASNCVAIRHFENKFAVETLICFNLFLNSQEKHY [F6V] it is -0.127 ± 0.1; for EASNCNAIRHFENKFAVETLICFNLFLNSQEKHY [F6N] it is 0.646 ± 0.28.
Turning to EASNCDAIRHFENKFAVETLICFNLFLNSQEKHY [F6D], the amyloid nucleation score amounted to 0.634 ± 0.16.
On to EWSNCFAIRHFENKFAVETLICFNLFLNSQEKHY [A2W], for which the amyloid nucleation score was -0.655 ± 0.21.
With EPSNCFAIRHFENKFAVETLICFNLFLNSQEKHY [A2P], the amyloid nucleation score was 0.0538 ± 0.21.
The figure for EYSNCFAIRHFENKFAVETLICFNLFLNSQEKHY [A2Y] is -0.52 ± 0.22; for EHSNCFAIRHFENKFAVETLICFNLFLNSQEKHY [A2H] it is 0.353 ± 0.26; for EVSNCFAIRHFENKFAVETLICFNLFLNSQEKHY [A2V] it is -1.22 ± 0.19.
For the variant EFSNCFAIRHFENKFAVETLICFNLFLNSQEKHY [A2F], the amyloid nucleation score is -1.28 ± 0.2.
As for EQSNCFAIRHFENKFAVETLICFNLFLNSQEKHY [A2Q], the amyloid nucleation score was 0.125 ± 0.26.
The same measure for EISNCFAIRHFENKFAVETLICFNLFLNSQEKHY [A2I]: -1.13 ± 0.23.
The same measure for ENSNCFAIRHFENKFAVETLICFNLFLNSQEKHY [A2N]: 0.137 ± 0.21; for ELSNCFAIRHFENKFAVETLICFNLFLNSQEKHY [A2L]: -1.51 ± 0.2.
With EESNCFAIRHFENKFAVETLICFNLFLNSQEKHY [A2E], the amyloid nucleation score is 0.464 ± 0.2.
Regarding ETSNCFAIRHFENKFAVETLICFNLFLNSQEKHY [A2T], the amyloid nucleation score was -0.12 ± 0.14.
Turning to ERSNCFAIRHFENKFAVETLICFNLFLNSQEKHY [A2R], the amyloid nucleation score is -0.078 ± 0.14.
For EKSNCFAIRHFENKFAVETLICFNLFLNSQEKHY [A2K], the amyloid nucleation score is -0.117 ± 0.23.
The same measure for EDSNCFAIRHFENKFAVETLICFNLFLNSQEKHY [A2D]: 0.518 ± 0.22; for ESSNCFAIRHFENKFAVETLICFNLFLNSQEKHY [A2S]: 0.208 ± 0.12; for EGSNCFAIRHFENKFAVETLICFNLFLNSQEKHY [A2G]: 0.0812 ± 0.13.
The figure for EMSNCFAIRHFENKFAVETLICFNLFLNSQEKHY [A2M] is -1.1 ± 0.24; for ECSNCFAIRHFENKFAVETLICFNLFLNSQEKHY [A2C] it is 0.581 ± 0.19.
Consider HASNCFAIRHFENKFAVETLICFNLFLNSQEKHY [E1H], for which the amyloid nucleation score is -0.752 ± 0.34.
Turning to MASNCFAIRHFENKFAVETLICFNLFLNSQEKHY [E1M], the amyloid nucleation score is -0.555 ± 0.27.
The same measure for YASNCFAIRHFENKFAVETLICFNLFLNSQEKHY [E1Y]: 0.135 ± 0.22.
The figure for NASNCFAIRHFENKFAVETLICFNLFLNSQEKHY [E1N] is 0.0879 ± 0.31.
As for IASNCFAIRHFENKFAVETLICFNLFLNSQEKHY [E1I], the amyloid nucleation score was -1.07 ± 0.3.
Regarding VASNCFAIRHFENKFAVETLICFNLFLNSQEKHY [E1V], the amyloid nucleation score is 0.419 ± 0.15.
The same measure for QASNCFAIRHFENKFAVETLICFNLFLNSQEKHY [E1Q]: -0.0134 ± 0.25.
The figure for RASNCFAIRHFENKFAVETLICFNLFLNSQEKHY [E1R] is -1.76 ± 0.21; for SASNCFAIRHFENKFAVETLICFNLFLNSQEKHY [E1S] it is -0.005 ± 0.23; for TASNCFAIRHFENKFAVETLICFNLFLNSQEKHY [E1T] it is -1.09 ± 0.24.
The figure for FASNCFAIRHFENKFAVETLICFNLFLNSQEKHY [E1F] is -1.27 ± 0.26; for LASNCFAIRHFENKFAVETLICFNLFLNSQEKHY [E1L] it is -1.03 ± 0.17; for CASNCFAIRHFENKFAVETLICFNLFLNSQEKHY [E1C] it is 0.179 ± 0.21.
In the case of KASNCFAIRHFENKFAVETLICFNLFLNSQEKHY [E1K], the amyloid nucleation score is -1.2 ± 0.24.
The figure for DASNCFAIRHFENKFAVETLICFNLFLNSQEKHY [E1D] is -0.0528 ± 0.21.
